# Results published in patent US20180207087A1, “KIT AND AESTHETIC SYSTEM FOR PREVENTION OF SKIN AGING” (priority 2017, published 2018).
# System: adipose tissue
# Type: in vivo, human
# Text: Thus, by adjusting the single dose of hyaluronidase in the injection composition for topical fat removal of the present invention to 300 IU to 600 IU, the side effects from using the drug are minimized and yet fat removal over a wide area can be carried out using a minimal volume. It has been shown in clinical trials that at a hyaluronidase activity of 300 IU and an injection volume of 1 cc, the diameter of the diffusion range for the injection composition is about 1 cm. Thus, by injecting the composition at narrow intervals between injection points of 0.5 to 2 cm, even fat removal as well as collagen production by skin stimulation can be facilitated.
substance,measurement,setting,value
hyaluronidase,"amount at which adipose cells are excessively hydrolyzed, causing concerns about dimpling or subcutaneous bleeding","human, in vivo, sc",above 600 IU
same,minimum amount of hyaluronidase exhibiting efficacy,single dose,300 IU
